This series is described as follows: soluble on expression in E. coli; label from the status in PepcDB or PDB records.
Regarding “MGSDKIHHHHHHMNQIIPTSANGCIPNVYFMGRWTTQTVESKPAMYTTNLGAQILFEVQNADYFTLEAVINPLSAPQTLSIYIDDELHLTPLTRSKNDFKLSSNQSHIVRIYFTGNTDQDEIWLGNDGLTIKDITIASGTLAAIKPAGPLVAFIGDSITAGCWVRSKAPSIGYGADLNYAAQLSRALDWEDYRIAYSAAGIIRYGTGGVPPAGKFVKYVNFSVKAPRINPDLVLINLGTNDARYEDDVFEMYFVWFINEVKKQFPHARIIIITPFNQAHSHVIKNVAKALKIELIPTLDWVIETNDEVHPNVEGSKAISDHLVAWFTEPQNRLQSE”, the “soluble on expression in E. coli” value is reported as “not soluble”.

Consider “MGSDKIHHHHHHMERTSDYWFMIEPYVHINIANGYMLLYNTLDKETIISNNEKVINLLEELLQDENCGVTILKNEQYRQNDIHSFITNLREKYMGDIIDISLSKGKPIQILPHTNFCNKRNEKYNFIKNANLLHFLNEIIIHLDHILDQDKLIDYLQSMPDNITYSISGDLKHIAKFDKLVDFLNQYNSSKKIICNYINFAIPASVCKNIFLYKIHIHFPIDIKQLIITTQSLKDQNNLFELIFDIASLDDYLKAWEIIEEYQIDKYQFNPIYTGYNIDFFKENVFLKKSDILSTSMSIKDFFIKQMINNNDFGKINIMPNGDVHSNINYPALGNICTHSIFELIQKEIEEGKSWLRVRNQEPCNACIYQWLCPSPSDYEIMIGQTNLCHVNIHNPNCENL”, for which the “soluble on expression in E. coli” value is “not soluble”.

As to “AVSGIRQSLISRKALTLFKTVLPAMSQTEKEALDAGTVWWEAELFKGKPEWEKLHAIQAPKLSAEERAFLDGPVNEVCAMVSDFQVTHELADLPPEVWQYLKDNKFFAMIIK”, the “soluble on expression in E. coli” value is reported as “not soluble”.

Take “SGPLDEYAYSWANHLLANPVNCATLEITLGPAEFLLRSDAQLAIAGGDLNATLDGRPIANWSRFYAKQGQTLRFGLPRNGLRAYLAVQGGFTVSPQLGSVSTHVRQGLGGLTSQGLALQTGDDLVFSAQQIAQKPVQMTFRFRPDYNLPLRLRVIESYQYQAFSPSAMESFYRSEFIVTPNSDRMGYRLQGETISPPDQAILSEGIALGAIQVPPNGQPIILLNDRQTIGGYPKLGCVARIDLPRLAQAKPGHSVRFVAGDLAGLQAVWCQWARFFGY”: the “soluble on expression in E. coli” value is “not soluble”.

On to “MSLITTRTARQCGQADYGWLQARYTFSFGHYFDPKLLGYASLRVLNQEVLAPGAAFQPRTYPKVDILNVILDGEAEYRDSEGNHVQASAGEALLLSTQPGVSYSEHNLSKDKPLTRMQLWLDACPQRENPLIQKLALNMGKQQLIASPEGAMGSLQLRQQVWLHHIVLDKGESANFQLHGPRAYLQSIHGKFHALTHHEEKEGHHHHHH”, for which the “soluble on expression in E. coli” value is on record as “not soluble”.

As for “KELIMCLSGSILRSATQQYSVGDYIEINGLRGRVVDINLLNTLMMQVGPNPLVGQLAGTTVSFPNSLLLSHPVRRDNILGDYVIHTVEIPVPIHLDSDEAVCRLKAVLEPLCAPYIPAIQRHLENVQAEKLFITPAARPRVTRVPYDDKAYRIIVRFASPVSKRLEIQQAVMDEFLRVQYRLLNHPAGSETL”, the “soluble on expression in E. coli” value was “not soluble”.

Regarding “MAHHHHHHMTETTGARGRRTFMGRRRSQHEVQTEASFVPGCSSLEYAYDPLASEQYANLVELRQMIHSCLTLVAGDVYDVVSFKDILYHLESEMPSSLPVTDLLLLSSRLFRRTAELGRLLSCFFGVVFADDRNDEHFRFAEVRLLQREIRELKRQLSASEEERRRLKEMLDNVGQVAYDHGRAVELLETHNKVLKKQSTALEDQMALLFHQLNTGLEGHCKSAYQQVTGEMMVQESLNPARITFRQTMDSLSEQLRGSRGLITDVREVLLSCSQGRRTGEAYAAVEPTVRFKLKMLEANFQQLMGRFTAVKDTVVETAQELMNALQERKKILCLSFQHIRLYDLQNAKLRNARAILAQLQHNTSEVVRRIRVTFPSGNLTSVDRFGNIRTQRWHGGYTLATLRGYNLTEQQQQGEGEMSEVARSSTAVPSLTAGASRTLPGLTESQIMAAESEMAVIDGGVHSVTPVGLALSPGFRSMRASHSGVSPPPLRTSVPPSRGGSKLASARGSSSTTGMPAPVSAPTSVRSDDPDVLPFESVSTFVDLMHDIHDDMDELQSALVLDDEMAAFLKVLTLSASTTPRADALEIAGDPTGRAALLERQEYNMETALQPTGGRPGGTRGAPSSASVVSGNESITALEANSFSSLFSKMGTPSTSSEARGGARAENASSEAVMARQAVQLQRQQKQIAKMQEDFTSKVGFLRQVYEARIGDLEVRETTVSKRLGLVGGSAFQRGAGDGGSGRSSPGVRKGEDESPVSSSPGDKERLTKLRKEWRQSKRKLQPNRKLREATAEQLQLMQKDEKL”, the “soluble on expression in E. coli” value is given as “not soluble”.

Regarding “MADKIKVSLLGSTGMVGQKMVKMLAKHPYLELVKVSASPSKIGKKYKDAVKWIEQGDIPEEVQDLPIVSTNYEDHKDVDVVLSALPNELAESIELELVKNGKIVVSNASPFRMDPDVPLINPEINWEHLELLKFQKERKGWKGILVKNPNCTAAIMSMPIKPLIEIATKSKIIITTLQAVSGAGYNGISFMAIEGNIIPYIKGEEDKIAKELTKLNGKLENNQIIPANLDSTVTSIRVPTRVGHMGVINIVTNERINIEEIKKTLKNFKSLPQQKNLPTAPKQPIIVRDEEDRPQPIIDVNAESGMAVTVGRIRHENNVLRLVVLGDNLVRGAAGITILTVEVMKELGYI”, the “soluble on expression in E. coli” value is “soluble”.

As to “SLRAKNQLFLLSPHYLRQVKESSGSRLIQQRLLHQQQPLHPEWAALAKKQLKGKNPEDLIWHTPEGISIKPLYSKRDTMDLPEELPGVKPFTRGPYPTMYTFRPWTIRQYAGFSTVEESNKFYKDNIKAGQQGLSVAFDLATHRGYDSDNPRVRGDVGMAGVAIDTVEDTKILFDGIPLEKMSVSMTMNGAVIPVLANFIVTGEEQGVPKEKLTGTIQNDILKEFMVRNTYIFPPEPSMKIIADIFEYTAKHMPKFNSISISGYHMQEAGADAILELAYTLADGLEYSRTGLQAGLTIDEFAPRLSFFWGIGMNFYMEIAKMRAGRRLWAHLIEKMFQPKNSKSLLLRAHCQTSGWSLTEQDPYNNIVRTAIEAMAAVFGGTQSLHTNSFDEALGLPTVKSARIARNTQIIIQEESGIPKVADPWGGSYMMECLTNDVYDAALKLINEIEEMGGMAKAVAEGIPKLRIEECAARRQARIDSGSEVIVGVNKYQLEKEDTVEVLAIDNTSVRNRQIEKLKKIKSSRDQALAERCLAALTECAASGDGNILALAVDASRARCTVGEITDALKKVFGEHKANDRMVSGAYRQEFGESKEITSAIKRVHKFMEREGRRPRLLVAKMGQDGHDRGAKVIATGFADLGFDVDIGPLFQTPREVAQQAVDADVHAVGVSTLAAGHKTLVPELIKELNSLGRPDILVMCGGVIPPQDYEFLFEVGVSNVFGPGTRIPKAAVQVLDDIEKCLEKKQQSV”, the “soluble on expression in E. coli” value is “not soluble”.

For the sequence “MTLSKRLALLGAQSAITLAKPRGLGSSLGLLDRRPFPYRQFSELTKANGRRAFLVDTLALVRSLEAQGVPSKQAEAITSAITEVLNDSLENVSESFVSKAEMQKIEMIQDSNLSKFKSEVKSSQEHHFTVLQRETEKLRGDIEKMRSELRYEIDKVTAGQRLDLNLERGRIRDELANQNTETTNLTNKLDREIHALRAQLEASKYEVIKYCIGTLVSISAVGLAVLRIMI”, the “soluble on expression in E. coli” value was “not soluble”.

For “MGSSHHHHHHSSGRENLYFQGMNDSIHGGLRVCQSTPLVQLQDRGRFGCRHLGVTQGGALDWLSMGWANWLLGNPLDAAVIEIALGGFVADCRADGWLALAGGDLGATLDGQPLPAWGAFAVRGGQRLAFAHPRQGARAYLAAPGGFAGERQLGSLATVAREGLGGPRADGKALAAGDSLGWLADGARPRALPLPSERIMDCTGEARLELILGAQIGDFPAMSLFDAFNGDWQVDTRADRMGVRLLGPRLECRQQSMISEGIALGAVQVPPDGQPIVLLNDRQTIGGYPRLGALAPLALARLAQCLPGQRVRLLPTVQEAAHREHRRLLAAWDA”, the “soluble on expression in E. coli” value is “soluble”.

Consider “MGSDKIHHHHHHMLDLINVSYDTQIPNNVGLSQDKKVLKALEKWHPGYINWWNDLIPQNFQESLVYLRTAVSVDPKGWAKFDYVKMPEYRWGVLLAPQVENRTIPCGEHYGQPAWQEVPGEYRNLLKRLIVIQGDTEPASVEQQRLLALTAPSLYDMRNLFQVNVEEGRHLWAMVYLLHKYFGRDGREEADDLLRRQSGSEEAPRMLGAFNEETPDWLSFFMFTYFTDRDGKMQLESLAQSGFDPLSRTCRFMLTEEAHHMFVGETGVGRTIERTCQVMKENGIDDPYDTGRIRDLGVIDLPLIQKKLNLHYTLSLDLFGQEVSTNAANAFNAGIKGRYMENRLTDDHQLQQDTYTVWDFEDGKAVQKQVAALTAINMRLRDDYTKDAAGGVGRWNKIIEKHGVDFQLSLPHEAFHRKIGVFADKHFDPSGQPVSGAEYDAGLPKWLPTHADGDFIQSLMKPCYEPGQYARWIAPPKVGIDNRPGDFEYVKLHMA”, for which the “soluble on expression in E. coli” value is “not soluble”.

Regarding “MIILKLEDSWGFQISKIAQEMDSQFSKKLTKYDIGSREYGILLTIHQYALLTQLKIGELNKVDRTTIGQLVDLLERKDFVARQKNPKDRRQNLLVLTKTGRSLAEEMWQEMKEIEKDVLKHLSAKQKETLLTMVKAIRKGELN”, the “soluble on expression in E. coli” value was “not soluble”.

Regarding “MTVETFHPKQTTTLETPAKTLEAASADSVNTGNVATGNRIGFVSLGCPKNLVDSERILTQLRIDGYEVTNSYDNADLVIVNTCGFIDAAVEESLDAVREALEENGKVIVTGCLGAKENQIREVHPDVLEITGPHSYEAVLKHVHKYVPKPEHNPFTSLIPQTGVKLTPKHYAYLKISEGCDNRCTFCIIPALRGDLDSRGAGSVLDEAKRLVEAGVQEILVVSQDTSAYGKDKGGRTDFWNGMPVKQDITSLARQLGKMGAWVRLHYIYPYPWVDDLIPLMAEGLILPYLDIPMQHASPRILKMMKRPGRVDRQLEAIQRWREICPDLVIRSTFIVGFPGETEEDFEMLLDFLREARLDRVGCFKYSEVEGAVANTIAELISEEVKEDRYHRFMEVQAEISAERLARFVGRTMDILIDDVDEEGAIGRSFADAPEIDGMVFINGETELEPGMLVRAVITHSDEHDLWAELVDADAEDEVEALEHHHHHH”, the “soluble on expression in E. coli” value was “soluble”.

For “DVKLVESGGGLVKPGRSLKLSCAASGFTFSDYYMFWVRQTPEQRLEWVATISDGGAYTYYPDSVKGRFTISRDNAKNNLYLQMNSLKSEDTGMYYCARDPLEYYGMDYWGQGTSVAVSSAKTTAPSVYPLAPVCGDTTGSSVTLGCLVKGYFPEPVTVTWNSGSLSSGVHTFPAVLQSDLYTLSSSVNVTSSTWPSQSITCNVAHPASSTKVDKKIVPR”, the “soluble on expression in E. coli” value was “soluble”.

Regarding “MPFHYPKLYMDHRGNMSTSSSLTSSTTATSSSSTGGVRKQILTLKPKQPNGYVQHLEIKAKESSQSSVISGGVPVPVTLLELKKKDRSEKNVVTNLKYRKPTANHHLDSVHSSSEHHHHHHLSLSSLTRRPGSPSSSGYETDSLVDQENCDVFSSLFNSSLSYQSALDHHHQFHELDMLHSHPIWSPQLPNNNTSLMMGSNSYYLQ”, the “soluble on expression in E. coli” value is “not soluble”.

Turning to “EKAQLIGPEDADITFVTWGSQKGPILDVIEDLKQDDITANLLYLKMFSPFPTEFVKSILSKAHLVIDVESNFTAQAAQMIKLYTGIEIENKILKYNGRHMTEDEILNSAKNILNK”, the “soluble on expression in E. coli” value is recorded as “not soluble”.

Regarding “MRKEGYKSGFVAIIGRPNVGKSTFLNRVIGQKIAIMSDKPQTTRNKIQGVYTDDDAQIIFIDTPGVHKPKHKLGDFMMKVALNALREVDLILFMVNAEEGFGRGEAFIIERLKEVDTPVFLVINKIDRVHPDELLPLIDRYKDLYPFAEIVPISALEGNNVDRLLEQIKERLPEGPQYYPPDQITDHPEQFIIAELIREKALHLTREEVPHSIAVVVERIERREGSPTVYISAVIVVERDSQKGIIIGKQGRMLKEIGQRARADIEALLGSRVFLELWVKVQKDWRNRLSQLRDFGFREDEY”, the “soluble on expression in E. coli” value is “soluble”.

Values taken from the DeepSol protein solubility set.
